According to paper PMC6989608:

Biological target: Recombinant PP99 gp55 tail spike protein (Pectobacterium phage PP99)
Assay: SEC; gel-filtration of purified PP99 gp55 on a calibrated Superdex 200 10 x 300 column; oligomeric state

## Recombinant PP99 gp55 tail spike protein (natural protein)
  stoichiometry N: 3
